This is an account of results in patent US7674604.

The target of test [1] is LFA-1 mutant K287C/K294C (αL K287C/K294C with β2) on 293T or K562 transfectants (human) (UniProt P05107). Nature of the test: flow cytometry on transfectants.
Test [2] addresses isolated K287C/K294C αL I-domain (V130-A338) expressed on K562 cells by the PDGF receptor transmembrane domain (human) (UniProt P20701). As to the kind of experiment: flow cytometry on K562 transfectants.
Test [3] addresses LFA-1 mutant K287C/K294C (αL K287C/K294C with β2) on 293T or K562 transfectants (human) (UniProt P05107). Nature of the test: flow cytometry, 293T, normalized to TS2/4.
Test [4] deals with LFA-1 single cysteine substitution mutant K294C on 293T transfectants (human) (UniProt P05107). Nature of the test: flow cytometry, 293T, normalized to TS2/4.
Test [5] has as its target LFA-1 single cysteine substitution mutant K287C on 293T transfectants (human) (UniProt P05107). Nature of the test: flow cytometry, 293T, normalized to TS2/4. (In general: In flow cytometry, cells or beads pass a laser one at a time.)
The target of test [6] is LFA-1 mutant L289C/K294C (αL L289C/K294C with β2) on 293T or K562 transfectants (human) (UniProt P05107). As to the kind of experiment: flow cytometry, 293T, normalized to TS2/4.
For test [7], the target named is LFA-1 single cysteine substitution mutant L289C on 293T transfectants (human) (UniProt P05107). Nature of the test: flow cytometry, 293T, normalized to TS2/4.
Test [8] addresses LFA-1 mutant K287C/K294C (αL K287C/K294C with β2) on 293T or K562 transfectants (human) (UniProt P05107). Nature of the test: flow cytometry, K562, normalized to TS2/4.
Test [9] has as its target LFA-1 mutant L289C/K294C (αL L289C/K294C with β2) on 293T or K562 transfectants (human) (UniProt P05107). Nature of the test: flow cytometry, K562, normalized to TS2/4.
Test [10] concerns the target LFA-1 mutant K287C/K294C (αL K287C/K294C with β2) on 293T or K562 transfectants (human) (UniProt P05107). As to the kind of experiment: flow cytometry, K562, normalized to TS1/22.
Test [11] shares this target. Nature of the test: inhibition of adhesion of K562 transfectants to immobilized ICAM-1.
Test [12] addresses wild-type LFA-1 (αL/β2 complex) expressed on 293T or K562 transfectants (human) (UniProt P05107). Nature of the test: inhibition of adhesion of K562 transfectants (+CBRLFA-1/2) to immobilized ICAM-1.
Test [13] deals with isolated wild-type αL I-domain (V130-A338) expressed on K562 cells by the PDGF receptor transmembrane domain (human). As to the kind of experiment: flow cytometry on K562 transfectants, panel 'WT I-domain (#1)'.
Sequence of isolated wild-type αL I-domain (V130-A338) expressed on K562 cells by the PDGF receptor transmembrane domain (human) (P09619 other isoform, or with tags, fused parts or gaps): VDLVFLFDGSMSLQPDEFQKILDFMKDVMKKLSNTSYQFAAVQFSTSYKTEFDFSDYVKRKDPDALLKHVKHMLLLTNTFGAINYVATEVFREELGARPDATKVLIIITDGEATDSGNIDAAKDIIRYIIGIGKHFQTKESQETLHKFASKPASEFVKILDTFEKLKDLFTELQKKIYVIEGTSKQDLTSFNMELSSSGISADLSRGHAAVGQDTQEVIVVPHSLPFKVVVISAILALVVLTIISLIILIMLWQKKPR
The target of test [14] is isolated L289C/K294C αL I-domain (V130-A338) expressed on K562 cells by the PDGF receptor transmembrane domain (human) (UniProt P20701). Nature of the test: flow cytometry on K562 transfectants, panel 'L289C/K294C I-domain (#1)'.
Sequence of isolated L289C/K294C αL I-domain (V130-A338) expressed on K562 cells by the PDGF receptor transmembrane domain (human) (P20701 155-363 L314C/K319C limits assumed): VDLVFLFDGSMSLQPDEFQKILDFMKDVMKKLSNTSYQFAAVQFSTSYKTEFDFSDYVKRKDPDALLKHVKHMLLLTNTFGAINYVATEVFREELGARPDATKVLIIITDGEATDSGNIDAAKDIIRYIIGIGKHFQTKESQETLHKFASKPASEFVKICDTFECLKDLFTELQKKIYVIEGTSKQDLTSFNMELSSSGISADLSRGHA
Test [15] shares this target. Nature of the test: flow cytometry on K562 transfectants, panel 'L289C/K294C I-domain (#2)'.
For test [16], the target named is isolated K287C/K294C αL I-domain (V130-A338) expressed on K562 cells by the PDGF receptor transmembrane domain (human) (UniProt P20701). As to the kind of experiment: flow cytometry on K562 transfectants, panel 'K287C/K294C I-domain (#2)'.
Sequence of isolated K287C/K294C αL I-domain (V130-A338) expressed on K562 cells by the PDGF receptor transmembrane domain (human) (P20701 155-363 K312C/K319C limits assumed): as the sequence (P20701 155-363 L314C/K319C limits assumed) above, with K158C, C160L counted along it
Test [17] has as its target isolated wild-type αL I-domain (V130-A338) expressed on K562 cells by the PDGF receptor transmembrane domain (human). As to the kind of experiment: flow cytometry on K562 transfectants, panel 'WT I-domain (#2)'; nothing is printed after the point.
For test [18], the target named is isolated K287C/K294C αL I-domain (V130-A338) expressed on K562 cells by the PDGF receptor transmembrane domain (human) (UniProt P20701). As to the kind of experiment: flow cytometry on K562 transfectants, panel 'K287C/K294C I-domain (#1)'.
Test [19] addresses wild-type LFA-1 (αL/β2 complex) expressed on 293T or K562 transfectants (human) (UniProt P05107). Nature of the test: flow cytometry on K562 transfectants, panel 'intact LFA-1'.
For test [20], the target named is recombinant ICAM-1 Fc chimera immobilized on the BIAcore sensor chip (UniProt P05362). As to the kind of experiment: BIAcore; fit of dissociation phase, 1:1 model; Table 6 kinetic study; Koff from a 1:1 fit of the dissociation phase. Background: SPR reads the build-up and loss of mass on a sensor chip optically.
Sequence of recombinant ICAM-1 Fc chimera immobilized on the BIAcore sensor chip (P05362 28-480 limits assumed, stated change not applied): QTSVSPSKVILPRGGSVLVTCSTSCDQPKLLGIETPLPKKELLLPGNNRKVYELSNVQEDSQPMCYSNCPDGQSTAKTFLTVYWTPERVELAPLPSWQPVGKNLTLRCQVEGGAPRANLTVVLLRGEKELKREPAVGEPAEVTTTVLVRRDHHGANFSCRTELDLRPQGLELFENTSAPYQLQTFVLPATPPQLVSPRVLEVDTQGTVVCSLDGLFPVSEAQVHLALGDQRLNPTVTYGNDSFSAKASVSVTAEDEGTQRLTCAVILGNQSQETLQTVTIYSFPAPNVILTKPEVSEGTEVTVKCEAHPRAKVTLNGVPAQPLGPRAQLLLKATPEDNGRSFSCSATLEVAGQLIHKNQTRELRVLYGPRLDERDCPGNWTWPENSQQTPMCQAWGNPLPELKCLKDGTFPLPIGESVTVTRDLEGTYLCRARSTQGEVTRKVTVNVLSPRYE
For test [21] the target is unchanged. As to the kind of experiment: BIAcore; Scatchard plot at steady state; Table 6 kinetic study; KD from Scatchard plots at steady state, millimolar affinity.
Test [22] has the same target. Nature of the test: BIAcore; Kon calculated by Koff/KD; Table 6 kinetic study; Kon calculated as Koff/KD from steady-state data, very weak binding.
The target in test [23] is wild-type LFA-1 (αL/β2 complex) expressed on 293T or K562 transfectants (human) (UniProt P05107). As to the kind of experiment: flow cytometry, K562 WT (#22), ICAM-1-IgA 100 µg/ml, FITC anti-human IgA, taken after paragraph 201 as ICAM-1-IgA with CBRLFA-1/2 10 µg/ml; left column of this row, taken as no ICAM-1-IgA: 3.58.
In test [24] the target is LFA-1 mutant K287C/K294C (αL K287C/K294C with β2) on 293T or K562 transfectants (human) (UniProt P05107). As to the kind of experiment: flow cytometry, K562 K287C K294C (#7), ICAM-1-IgA 100 µg/ml, FITC anti-human IgA, taken after paragraph 201 as ICAM-1-IgA with CBRLFA-1/2 10 µg/ml; left column of this row, taken as no ICAM-1-IgA: 3.59.
Test [25] deals with LFA-1 mutant L289C/K294C (αL L289C/K294C with β2) on 293T or K562 transfectants (human) (UniProt P05107). Nature of the test: flow cytometry, K562 L289C K294C (#6), ICAM-1-IgA 100 µg/ml, FITC anti-human IgA, taken after paragraph 201 as ICAM-1-IgA with CBRLFA-1/2 10 µg/ml; left column of this row, taken as no ICAM-1-IgA: 4.68.
Test [26] has as its target LFA-1 mutant K287C/K294C (αL K287C/K294C with β2) on 293T or K562 transfectants (human) (UniProt P05107). As to the kind of experiment: flow cytometry, K562 K287C K294C (#7), ICAM-1-IgA 100 µg/ml, FITC anti-human IgA, taken after paragraph 201 as ICAM-1-IgA without CBRLFA-1/2; left column of this row, taken as no ICAM-1-IgA: 3.59.
Test [27] addresses LFA-1 mutant L289C/K294C (αL L289C/K294C with β2) on 293T or K562 transfectants (human) (UniProt P05107). Nature of the test: flow cytometry, K562 L289C K294C (#6), ICAM-1-IgA 100 µg/ml, FITC anti-human IgA, taken after paragraph 201 as ICAM-1-IgA without CBRLFA-1/2; left column of this row, taken as no ICAM-1-IgA: 4.68.
Test [28] deals with wild-type LFA-1 (αL/β2 complex) expressed on 293T or K562 transfectants (human) (UniProt P05107). Nature of the test: flow cytometry, K562 WT (#22), ICAM-1-IgA 100 µg/ml, FITC anti-human IgA, taken after paragraph 201 as ICAM-1-IgA without CBRLFA-1/2; left column of this row, taken as no ICAM-1-IgA: 3.58.

Sequence of soluble ICAM-1-IgA chimera containing the 5 Ig domains of human ICAM-1 (P05362 28-480, stated change not applied): as the sequence (P05362 28-480 limits assumed, stated change not applied) above

In turn, monoclonal antibody CBRLFA-1/1 yielded a % of wild-type binding (% of wild-type) in test [1] of 40 to 50. In test [2], the % of binding to the wild-type I-domain (% of wild-type I-domain) stood at 80. Further, the % wild-type binding (% of wild-type) is 43.6 in [3]; 89.4 in test [4]; 86.1 in [5]; 95.9 in test [6]; 93.3 in test [7]; 55.5 in test [8]. The substance further displayed a % wild-type binding (% of wild-type) in test [9] of 118.

The substance monoclonal antibody CBRLFA-1/9 gave a % wild-type binding (% of wild-type) in test [10] of 84.7.

On to monoclonal antibody YFC51, for which the % wild-type binding (% of wild-type) in test [3] was determined as 103; in test [6] it was 95.1; in test [8], 101; in test [9], 111. Also, the values for the % inhibition in test [11] and in test [12] were 0.08% and 98.4%, respectively.

For “mouse anti-human αL (CD11a) monoclonal antibody TS1/22”, the mean fluorescent intensity in test [13] is 67.3; in test [14], 71.1; in test [15], 151; in test [16] it was 84.6; in [17], 205; in [18], 66.3. In test [19], the mean fluorescent intensity was 104. In addition, the % wild-type binding (% of wild-type) amounted to 95.8 in test [3]; 92.2 in test [4]; 103 in test [5]; 91 in test [6]; 96.2 in [7]; 93.1 in [8]. The substance also yielded a % wild-type binding (% of wild-type) in test [9] of 110.

With “recombinant soluble wild-type αL I-domain (G128 to Y307), made in E. coli (from UniProt P20701 153-332) (receptor)”, the koff (in general, the first-order rate constant of dissociation) in test [20] came to 3 s⁻¹. For the same substance, the Kd (in general, the constant that tells how readily two partners part at equilibrium) in test [21] stood at 1350 µM. In addition, the kon (usually a measure of how fast the partners come together) in [22] was 2220 M⁻¹ s⁻¹.

For the substance “soluble ICAM-1-IgA chimera containing the 5 Ig domains of human ICAM-1 (from UniProt P05362 28-480) (Fc fusion)”, the mean fluorescent intensity in test [23] came to 4.89; in test [24], 41.3; in test [25], 4.32; in test [26], 24.8; in test [27], 5.36; in [28] it was 5.26.
